Where “and” joins values, the source holds several entries; their conditions need not be identical. Equal values may be shown once.

Assay [1] deals with human Bcl-2 protein produced in 32D-BCL-2 cells (human) (UniProt P10415). The assay can be described thus: immunoprecipitation with anti-Bcl-2 monoclonal antibody 4D7 or control mouse IgG1 from 32D-BCL-2 lysate, in vitro immune complex kinase assay.
Assay [2] has as its target GST protein without BAP-1 sequences (Schistosoma japonicum (Blood fluke), UniProt P08515 = GST). The assay can be described thus: GST pull-down of 35S-labeled in vitro translated protein, SDS-PAGE and fluorography. On the procedure: The cDNA sequences encoding Bcl-X-L, Bcl-X-S, Bcl-2 and Bcl-2β were subcloned into plasmid pSK-II (Stratagens), which contains a T7 RNA polymerass binding site. Cloning into pSK-II allows for the in vitro production of RNA, which can be translated in vitro in the presence of ^35S-methionine using reticulocyte lysates to obtain ^35S-labeled proteins. The ^35S-labeled Bcl-2-related proteins (20 µl of in vitro translation mix) were added to approximately 1 µg of GST-BAP-1 fusion protein immobilized on 10 µl of glutathione-Sepharose or with approximately 1 µg of immobilized GST control protein as described above. Following incubation at 4° C. for 1 hr, the Sepharose particles were washed 3× in a solution containing 147 mM KCl, 20 mM Hepes (pH 7.1), 1 mM MgCl_2, 0.5 mM EGTA, 1 mM PMSF, 0.05 NP-40, 1 mM DTT, 1% non-fat dried milk and 1% BSA. The Sepharose particles were collected by centrifugation and boiled in Laemmli sample buffer to release any bound ^35S-labeled Bcl-2-related proteins. The released proteins were size-fractionated by SDS-PAGE using a 10% gel and visualized by fluorography using X-ray film.

As to “full length endogenous Raf-1 kinase (from UniProt Q99N57) (enzyme)”, the Raf-1 kinase activity in Bcl-2 immune complexes relative to control immune complexes (× (fold over control immune complexes)) in assay [1] is 20 and 50.

B1: 35S-labeled Bcl-X-S (in vitro translated) (other)
chain: MSQSNRELVVDFLSYKLSQKGYSWSQFSDVEENRTEAPEGTESEMETPSAINGNPSWHLADSPAVNGATGHSSSLDAREVIPMAAVKQALREAGDEFELRYRRAFSDLTSQLHITPGTAYQSFEQDTFVELYGNNAAAESRKGQERFNRWFLTGMTVAGVVLLGSLFSRK
modifications: 35S-methionine label
B1: the binding result in assay [2] is listed as “no binding”.

B2: 35S-labeled Bcl-2β (in vitro translated) (other)
chain: MAHAGRTGYDNREIVMKYIHYKLSQRGYEWDAGDVGAAPPGAAPAPGIFSSQPGHTPHPAASRDPVARTSPLQTPAAPGAAAGPALSPVPPVVHLTLRQAGDDFSRRYRRDFAEMSSQLHLTPFTARGRFATVVEELFRDGVNWGRIVAFFEFGGVMCVESVNREMSPLVDNIALWMTEYLNRHLHTWIQDNGGWVGALGDVSLG
modifications: 35S-methionine label
Take B2: the binding result in assay [2] is “no binding”.

Source of the values: patent US5686595, “Bcl-2-associated proteins” (La Jolla Cancer Research Foundation, dated 1997).
